The values below are quoted from earlier work in PMC6347146.

Usually Kd stands for the constant that tells how readily two partners part at equilibrium.

The data set addresses IL-21R (Homo sapiens) (UniProt Q9HBE5).
UniProt Q9HBE5, sequence (Q9HBE5 20-232): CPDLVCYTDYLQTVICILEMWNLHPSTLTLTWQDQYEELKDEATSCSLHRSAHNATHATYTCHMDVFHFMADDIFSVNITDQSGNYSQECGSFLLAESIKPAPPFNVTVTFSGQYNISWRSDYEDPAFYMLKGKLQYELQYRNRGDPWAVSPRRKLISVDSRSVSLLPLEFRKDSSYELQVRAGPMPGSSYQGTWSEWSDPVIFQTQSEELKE

Take IL-21 (from UniProt Q9HBE4): the Kd was 0.07 nM.
